From US20210206865A1 (Regeneron, published 2021) come the findings set out here.

Substitutions are numbered along the chain they refer to.

Assay [1] concerns the target T1, human BCMA on the surface of cell lines (NCI-H929, MM.1S, OPM-2, RPMI-8226, Daudi, Raji, MOLP-8, U266) (human, UniProt Q02223 1-184).
T1 sequence: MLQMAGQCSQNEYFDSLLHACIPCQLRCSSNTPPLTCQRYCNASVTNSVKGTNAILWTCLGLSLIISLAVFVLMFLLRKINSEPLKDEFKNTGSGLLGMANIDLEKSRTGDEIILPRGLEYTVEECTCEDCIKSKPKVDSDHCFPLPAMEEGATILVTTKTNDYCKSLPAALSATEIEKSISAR
The assay can be described thus: cell-based or functional assay.

The target in assay [2] is T2, human BCMA-MMH (extracellular domain of human BCMA with C-terminal myc-myc-hexahistidine tag) (human).
T2 construct: Monomeric antigen; also called hBCMA.mmh; hBCMA.mmH
T2 chain: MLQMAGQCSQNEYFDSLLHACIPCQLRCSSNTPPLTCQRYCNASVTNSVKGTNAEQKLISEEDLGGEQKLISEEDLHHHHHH
The assay can be described thus: SPR Biacore, 25 C, mAb captured via anti-hFc. How it is done: (§1) The CM5 Biacore sensor surface was derivatized by amine coupling with a monoclonal mouse anti-human Fc antibody (GE, #BR-1008-39) to capture purified anti-BCMA mAbs and anti-BCMA×anti-CD3 bispecific mAbs. All Biacore binding studies were performed in a buffer composed of 0.01M HEPES pH 7.4, 0.15M NaCl, 3 mM EDTA, 0.05% v/v Surfactant P20 (HBS-ET running buffer). […] Antigen samples were then injected over the anti-BCMA and anti-BCMA×anti-CD3 bispecific mAbs captured surfaces at a flow rate of 30 μL/minute. Antibody-reagent association was monitored for 5 minutes while dissociation in HBS-ET running buffer was monitored for 10 minutes. All of the binding kinetics experiments were performed at 25° C. Kinetic association (kₐ) and dissociation (kd) rate constants were determined by fitting the real-time sensorgrams to a 1:1 binding model using Scrubber 2.0c curve fitting software. Binding dissociation equilibrium constants (KD) and dissociative half-lives (t1/2) were calculated from the kinetic rate constants as: […]
Background: In SPR one partner is held on a chip, and binding of the other changes the refractive index at the surface.

Assay [3] has as its target T3, mouse BCMA-MFC (BCMA with C-terminal mFc tag) (mouse).
T3 construct: Tested at a single concentration of 30 nM; also called mBCMA.mFc
T3 chain: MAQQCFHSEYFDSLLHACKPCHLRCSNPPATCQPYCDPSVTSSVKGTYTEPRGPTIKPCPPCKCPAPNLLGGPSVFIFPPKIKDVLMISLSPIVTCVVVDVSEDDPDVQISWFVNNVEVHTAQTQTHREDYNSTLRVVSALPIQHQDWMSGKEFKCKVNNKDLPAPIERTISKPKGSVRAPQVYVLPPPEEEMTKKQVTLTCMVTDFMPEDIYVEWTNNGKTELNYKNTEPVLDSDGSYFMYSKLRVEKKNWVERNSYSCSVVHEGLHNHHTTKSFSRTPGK
The assay can be described thus: SPR Biacore, 25 C, mAb captured via anti-hFc. How it is done:
as §1

Assay [4] has as its target T4, human BCMA-MFC (extracellular domain of human BCMA with C-terminal mFc tag) (human).
T4 construct: also called hBCMA.mFc
T4 chain: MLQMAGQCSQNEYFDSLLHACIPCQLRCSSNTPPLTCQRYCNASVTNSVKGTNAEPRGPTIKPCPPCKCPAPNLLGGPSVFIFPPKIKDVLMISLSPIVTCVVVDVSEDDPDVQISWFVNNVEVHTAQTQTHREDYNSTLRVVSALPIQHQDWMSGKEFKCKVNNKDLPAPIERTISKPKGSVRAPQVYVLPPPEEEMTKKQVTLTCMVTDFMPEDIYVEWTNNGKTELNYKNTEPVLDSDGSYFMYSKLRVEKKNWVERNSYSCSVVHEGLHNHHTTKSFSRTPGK
The assay can be described thus: SPR Biacore, 25 C, mAb captured via anti-hFc. How it is done:
as §1

Assay [5] concerns the target T5, monkey BCMA-MFC (monkey BCMA with C-terminal mFc tag) (monkey).
T5 construct: also called mfBCMA.mFc
The assay can be described thus: SPR Biacore, 25 C, mAb captured via anti-hFc. How it is done: as §1

Assay [6] concerns the target T1, human BCMA on the surface of cell lines …. Kind of assay: cell-based or functional assay. This is another data set of the same source.
Assay [7] has the same target. The assay can be described thus: cell-based or functional assay. This is another data set of the same source.
The target of assay [8] is T6, monkey BCMA-MMH (monkey BCMA with C-terminal myc-myc-hexahistidine tag) (monkey).
T6 construct: Monomeric antigen; also called mfBCMA.mmh
Kind of assay: SPR Biacore, 25 C, mAb captured via anti-hFc. How it is done:
as §1

The target in assay [9] is T1, human BCMA on the surface of cell lines …. The assay can be described thus: cell-based or functional assay. The source holds these as a separate data set.

B1: mAb16747 (REGN4515) (antibody, V domains shown)
VH: QVQLVESGGGLVKPGGSLRLSCAASGFTFSDYYISWIRQAPGKGLEWVSYISSSGSSIKYADSVKGRFTISRDNAKNSLYLQMNSLRAEDTAVYYCAREGGNYGMDVWGQGTTVTVSS
VL: DIQMTQSPSSVSASVGDRVTITCRASQGINNWLVWYQQKPGKAPKLLIYAATSLQSGVPSRFSGSGSGTDFTLTISSLQPEDFATYYCQQANSFPPTFGQGTKLEIK
notes: Anti-BCMA monoclonal antibody; Captured by anti-human Fc in SPR
A word on the Kd: it is the concentration at which binding is half-saturated. What is called koff is the rate constant with which the complex falls apart. What is called kon is the second-order rate constant of association. Consider B1, for which, in assay [1], the “MFI fold change over cells incubated in media only, NCI-H929, overnight with 67 nM antibody” value was 1.8 fold and the “MFI fold change over cells incubated in media only, NCI-H929, overnight with 667 nM antibody” value came out at 2.1 fold. In assay [2], the “90 nM hBCMA.mmh Bind (RU)” value stood at 31.4 RU; the affinity, expressed as Kd, was 2.84 nM; the off-rate constant (koff) came out at 0.00247 s⁻¹; the kon is 869000 M⁻¹ s⁻¹. In addition, the t1/2 in assay [2] was 4.7 min. For the same molecule, in assay [3], the “30 nM mBCMA.mFc Bind (RU)” value was determined as 108 RU, binding was characterised by a dissociation constant (Kd) of 4.42 nM, the koff stood at 0.00418 s⁻¹ and the association rate constant (kon) was determined as 947000 M⁻¹ s⁻¹. The molecule further displayed a t1/2 in assay [3] of 2.8 min. In assay [4], the “30 nM hBCMA.mFc Bind (RU)” value turned out to be 146 RU; the affinity, expressed as Kd, was 0.0633 nM; the off-rate (koff) stood at 8.95e-05 s⁻¹; the on-rate constant (kon) stood at 1.41e+06 M⁻¹ s⁻¹. This molecule also showed a t1/2 in assay [4] of 129 min. Further, in assay [5], the “30 nM mfBCMA.mFc Bind (RU)” value amounted to 101 RU; the affinity, expressed as Kd, was 3.37 nM; the koff was 0.00716 s⁻¹; the kon was found to be 2.13e+06 M⁻¹ s⁻¹. In assay [5], this molecule gave a t1/2 of 1.6 min. For the same molecule, in assay [6], the “MFI fold change over cells incubated in media only, U266, overnight with 67 nM antibody” value stood at 1.5 fold and the “MFI fold change over cells incubated in media only, U266, overnight with 667 nM antibody” value was determined as 1.7 fold. For the same molecule, in assay [7], the “MFI fold change over cells incubated in media only, Molp8, overnight with 67 nM antibody” value is 2.2 fold and the “MFI fold change over cells incubated in media only, Molp8, overnight with 667 nM antibody” value was 0.6 fold.

B2: mAb16711 (antibody, V domains shown)
VH: QVQLVESGGGVVQPGRSLRLSCAASGFTFSTYGIHWVRQAPGKGLEWVAVILHDGSSNYYAESVKGRFIISRDNSKNTLYLQMNSLRAEDTALYYCTKRYSEAAGPNWFDPWGQGTLVTVSS
VL: DIQMTQSPSSVSASVGDRVTITCRASRGISSWLAWYQQKPGKAPKLLIHAASSLQSGVPSRFSGSGSGTDFTLTISSLQPEDFATYYCQQAISFPFTFGPGTKVDIK
notes: as for B1
For the molecule B2, in assay [1], the “MFI fold change over cells incubated in media only, NCI-H929, overnight with 67 nM antibody” value was 2.8 fold and the “MFI fold change over cells incubated in media only, NCI-H929, overnight with 667 nM antibody” value was found to be 2.1 fold. In addition, in [8], the “90 nM mfBCMA.mmh Bind (RU)” value was -0.5 RU. Moreover, in assay [2], the “90 nM hBCMA.mmh Bind (RU)” value is 22.2 RU, the equilibrium dissociation constant (Kd) was determined as 1.73 nM, the off-rate constant (koff) is 0.00347 s⁻¹ and the kon was 2.01e+06 M⁻¹ s⁻¹. The molecule also returned a t1/2 in assay [2] of 3.3 min. In addition, in assay [3], the “30 nM mBCMA.mFc Bind (RU)” value stood at 90 RU, binding was put at a Kd of 1.02 nM, the koff is 0.0011 s⁻¹ and the kon turned out to be 1.07e+06 M⁻¹ s⁻¹. The molecule further gave a t1/2 in assay [3] of 10.5 min. Further, in assay [4], the “30 nM hBCMA.mFc Bind (RU)” value came out at 114 RU; the affinity, expressed as Kd, was 0.103 nM; the off-rate constant (koff) was determined as 0.00019 s⁻¹; the kon was 1.85e+06 M⁻¹ s⁻¹. For the same molecule, in assay [4], the t1/2 was found to be 60.8 min. Also, in assay [5], the “30 nM mfBCMA.mFc Bind (RU)” value is 0.9 RU and the binding result was “no binding (tested: 30 nM)”. Also, in [6], the “MFI fold change over cells incubated in media only, U266, overnight with 67 nM antibody” value is 2.2 fold and the “MFI fold change over cells incubated in media only, U266, overnight with 667 nM antibody” value was 2.2 fold. Further, in assay [7], the “MFI fold change over cells incubated in media only, Molp8, overnight with 67 nM antibody” value is 3.5 fold and the “MFI fold change over cells incubated in media only, Molp8, overnight with 667 nM antibody” value was 3 fold.

B3: mAb16716 (antibody, V domains shown)
VH: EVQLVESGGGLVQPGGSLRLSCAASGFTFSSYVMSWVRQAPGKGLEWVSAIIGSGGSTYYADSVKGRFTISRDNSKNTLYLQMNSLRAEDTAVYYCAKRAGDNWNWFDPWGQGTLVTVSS
VL: B2 VL with V15L, R27Q, Q38R, H49Y, T69A, I92K, F94V
notes: as for B1
Turning to B3, in assay [8], the “90 nM mfBCMA.mmh Bind (RU)” value was determined as 0.8 RU and the binding result is listed as “no binding (tested: 90 nM)”. Besides, in [2], the “90 nM hBCMA.mmh Bind (RU)” value came out at 26.4 RU; the affinity, expressed as Kd, was 3.56 nM; the koff amounted to 0.00299 s⁻¹; the kon was 841000 M⁻¹ s⁻¹. The molecule further showed a t1/2 in assay [2] of 3.9 min. In addition, in assay [3], the “30 nM mBCMA.mFc Bind (RU)” value came out at 33.4 RU, the equilibrium dissociation constant (Kd) came to 18.8 nM, the off-rate constant (koff) was 0.00385 s⁻¹ and the on-rate (kon) was 205000 M⁻¹ s⁻¹. This molecule returned a t1/2 in assay [3] of 3 min. Moreover, in assay [4], the “30 nM hBCMA.mFc Bind (RU)” value was determined as 120 RU; the affinity, expressed as Kd, was 0.0968 nM; the koff stood at 8.35e-05 s⁻¹; the association rate constant (kon) came out at 862000 M⁻¹ s⁻¹. In assay [4], this molecule returned a t1/2 of 138 min.

B4: mAb21581, parental bivalent anti-BCMA antibody (antibody, V domains shown)
VH: EVQLVESGGGLVQPGGSLRLSCAASGFTFSNFWMTWVRQAPGKGLEWVANMNQDGSEKYYVDSVKGRFTISRDNAKSSLYLQMNSLRAEDTAVYYCARDREYCISTSCYDDFDYWGQGTLVTVSS
VL: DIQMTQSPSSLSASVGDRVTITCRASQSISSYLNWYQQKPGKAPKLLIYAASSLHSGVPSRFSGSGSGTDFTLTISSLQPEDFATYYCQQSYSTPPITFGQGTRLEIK
Turning to B4, in assay [9], the “MFI fold change over cells incubated in media only, MM1S, overnight with 67 nM antibody” value was 7.3 fold and the “MFI fold change over cells incubated in media only, MM1S, overnight with 667 nM antibody” value is 7 fold. In addition, in assay [1], the “MFI fold change over cells incubated in media only, NCI-H929, overnight with 67 nM antibody” value is 1.2 fold and the “MFI fold change over cells incubated in media only, NCI-H929, overnight with 667 nM antibody” value came to 1.4 fold. Besides, in assay [6], the “MFI fold change over cells incubated in media only, U266, overnight with 67 nM antibody” value stood at 1.8 fold and the “MFI fold change over cells incubated in media only, U266, overnight with 667 nM antibody” value is 2.3 fold. In assay [7], the “MFI fold change over cells incubated in media only, Molp8, overnight with 67 nM antibody” value was 2.3 fold and the “MFI fold change over cells incubated in media only, Molp8, overnight with 667 nM antibody” value amounted to 3.7 fold.

B5: mAb16732 (REGN4514) (antibody, V domains shown)
VH: EVQLVESGGGLVQPGRSLRLSCAASGFTFDDYAMHWVRQAPGKGLEWVSGISWNSGNMGYADSVKGRFTISRDNAKNSLFLQMHSLRAEDTAFYYCAKVRLTAFDFWGQGTLVTVSS
VL: DIQMTQSPSSLSASVGDRVTITCRTSQSIGNYLNWFQQKPGKAPKLLIYTASSLQNGVPSRFTGSGSGTDFTLTISSLQPEDFVIYYCQQSFSTPYTFGQGTKLEIK
notes: as for B1
Regarding B5, in assay [2], the “90 nM hBCMA.mmh Bind (RU)” value turned out to be 25.3 RU, the dissociation constant Kd turned out to be 2.69 nM, the koff turned out to be 0.00285 s⁻¹ and the kon worked out at 1.06e+06 M⁻¹ s⁻¹. In [2], this molecule registered a t1/2 of 4.1 min. In assay [3], the “30 nM mBCMA.mFc Bind (RU)” value came out at 110 RU, binding was put at a Kd of 0.677 nM, the koff amounted to 0.000269 s⁻¹ and the association rate constant (kon) worked out at 397000 M⁻¹ s⁻¹. In addition, the t1/2 in assay [3] was 43 min. In addition, in assay [4], the “30 nM hBCMA.mFc Bind (RU)” value came to 124 RU, the Kd is 0.0422 nM, the off-rate constant (koff) came out at 4.53e-05 s⁻¹ and the kon worked out at 1.07e+06 M⁻¹ s⁻¹. Further, the t1/2 in [4] turned out to be 255 min. In addition, in [5], the “30 nM mfBCMA.mFc Bind (RU)” value came out at 40.3 RU, the dissociation constant (Kd) came to 14.7 nM, the koff is 0.00724 s⁻¹ and the on-rate (kon) was 492000 M⁻¹ s⁻¹. In addition, the t1/2 in assay [5] came out at 1.6 min.
